Data: patent publication EP0730609B1 (SMITHKLINE BEECHAM CORPORATION, dated 2005)

Assays:
[1] = molecular target: T1, recombinant human IL4 (E. coli, non-glycosylated) (human, UniProt P05112 25-153); experiment: titration microcalorimetry, measured at 60°C and calculated for 25°C, pH 7.4, 150 mM NaCl
T1 construct: also called hIL4; hIL-4
T1 sequence (looked up): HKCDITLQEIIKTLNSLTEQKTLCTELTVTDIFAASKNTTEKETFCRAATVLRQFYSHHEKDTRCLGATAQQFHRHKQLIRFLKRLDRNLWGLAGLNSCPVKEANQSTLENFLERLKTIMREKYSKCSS

[2] = molecular target: T1, recombinant human IL4 (E. coli, …); experiment: titration microcalorimetry, 25°C, pH 7.4, 150 mM NaCl
[3] = molecular target: T1, recombinant human IL4 (E. coli, …); experiment: cell-based or functional assay

- Kd [1]: 0.011 nM
- -TΔS [2]: 8.2 kcal/mol IL4
- ΔG [2]: -13.6 kcal/mol IL4
- ΔH [2]: -21.8 kcal/mol IL4
- B cell (inhibition of IL4-stimulated B lymphocyte proliferation), IC50 [3]: 0.047 nM
- CD23 induction (inhibition of IL4-induced CD23 expression on B lymphocytes), IC50 [3]: 0.333 nM
- IgE synthesis (inhibition of IL4-driven IgE secretion), IC50 [3]: 0.054 nM
- T cell (inhibition of IL4-stimulated T lymphocyte proliferation), IC50 [3]: 0.044 nM
B1: humanized 3B9 (IgG1) (antibody, V domains shown)
VH: QVTLRESGPALVKPTQTLTLTCTFSGFSLSTSGMGVSWIRQPPGKGLEWLAHIYWDDDKRYNPSLKSRLTISKDTSRNQVVLTMTNMDPVDTATYYCARRETVFYWYFDVWGRGTPVTVSS
VL: IVMTQSPDSLAVSLGERATINCKASQSVDYDGDSYMNWYQQKPGQPPKLLIYAASNLESGVPDRFSGSGSGTDFTLTISSLQAEDVAVYYCQQSNEDPPRFGGGTKVEIKR
